In patent publication US6156555 one finds Enzyme activity n mole/h/ml medium; substrate PheGlyPhehydroxyGly, product PheGlyPhe-NH2 + glyoxylic acid and Enzyme activity n mole/h/ml medium; substrate PheGlyPheGly, product PheGlyPhe-hydroxyGly data, which are given here for three substances.

Test [1] deals with phenylalanyl-glycyl-phenylalanyl-hydroxylglycine.
Test [2] has as its target phenylalanyl-glycyl-phenylalanyl-glycine.

Bounds are passed on as bounds.

Consider “enzyme expressed by plasmid SV-a (rat; signal sequence + N-terminal domain) (from UniProt P14925)”, for which the Enzyme activity n mole/h/ml medium; substrate PheGlyPhehydroxyGly, product PheGlyPhe-NH2 + glyoxylic acid in test [1] is less than 2 nmol/h/mL. The substance further had an Enzyme activity n mole/h/ml medium; substrate PheGlyPheGly, product PheGlyPhe-hydroxyGly in test [2] of 2.8 nmol/h/mL.
With “enzyme expressed by plasmid SV-b (rat; signal sequence + C-terminal domain) (from UniProt P14925)”, the Enzyme activity n mole/h/ml medium; substrate PheGlyPhehydroxyGly, product PheGlyPhe-NH2 + glyoxylic acid in test [1] came out at 10.8 nmol/h/mL. In addition, the Enzyme activity n mole/h/ml medium; substrate PheGlyPheGly, product PheGlyPhe-hydroxyGly in test [2] stood at 0.4 nmol/h/mL.
In the case of “enzymes expressed by plasmid SV-203 (rat; signal sequence + N-terminal domain + C-terminal domain) (from UniProt P14925)”, in test [1], the Enzyme activity n mole/h/ml medium; substrate PheGlyPhehydroxyGly, product PheGlyPhe-NH2 + glyoxylic acid came out at 4.2 nmol/h/mL. Further, the Enzyme activity n mole/h/ml medium; substrate PheGlyPheGly, product PheGlyPhe-hydroxyGly in test [2] is 2.5 nmol/h/mL.
